Results from PMC13137973.
pIC50, pKd: −log10 of the molar value.

Assays:
[1] = biological target: Biotinylated human TNFR2 protein (human) (UniProt P20333); assay: BLI
[2] = biological target: human immunodeficiency virus 1 (HIV-1) (group M, subtype B, Isolate MN) gp120 Protein (HIV-1 (group M, subtype B, isolate MN)) (UniProt P05877); assay: flow cytometry on cells

Sequence of recombinant TNFR2 protein (soluble, exogenous) (P20333 23-257): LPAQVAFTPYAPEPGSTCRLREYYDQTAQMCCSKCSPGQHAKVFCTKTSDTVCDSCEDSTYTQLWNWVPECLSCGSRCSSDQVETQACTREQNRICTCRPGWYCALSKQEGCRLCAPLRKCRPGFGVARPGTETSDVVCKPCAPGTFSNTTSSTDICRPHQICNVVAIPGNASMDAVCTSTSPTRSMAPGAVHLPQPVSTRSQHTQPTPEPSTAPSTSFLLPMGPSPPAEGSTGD
Sequence of Biotinylated human TNFR2 protein (human) (P20333 23-257): as above

Substance	pKd [1]	pIC50 [2]	reduction in gp120 binding to Jurkat cells [2] [%]
human immunodeficiency virus 1 (HIV-1) (group M, subtype B, Isolate MN) gp120 Protein (from UniProt P05877 30-513) (natural protein)	7.06	–	–
recombinant TNFR2 protein (soluble, exogenous) (from UniProt P20333-1 23-257) (domain or fragment)	–	6.97	65
